Data from publication PMC3637639.

Tests used:
[1] = target: α7-Venus nAChR subunit (mouse) (UniProt P49582); test: FRET or BRET; sensitized acceptor emission FRET between CFP-RIC-3 (donor) and α7-Venus, β2YFP (with nonfluorescent α4) or α4YFP (with nonfluorescent β2) co-transfected in living HEK293T cells at cDNA ratios of CFP-RIC-3 to subunit of 0.2:1, 0.5:1, 1:1 or 5:1
[2] = target: β2YFP nAChR subunit (mouse) (UniProt Q9ERK7); test: as above
UniProt Q9ERK7, sequence (Q9ERK7 26-501): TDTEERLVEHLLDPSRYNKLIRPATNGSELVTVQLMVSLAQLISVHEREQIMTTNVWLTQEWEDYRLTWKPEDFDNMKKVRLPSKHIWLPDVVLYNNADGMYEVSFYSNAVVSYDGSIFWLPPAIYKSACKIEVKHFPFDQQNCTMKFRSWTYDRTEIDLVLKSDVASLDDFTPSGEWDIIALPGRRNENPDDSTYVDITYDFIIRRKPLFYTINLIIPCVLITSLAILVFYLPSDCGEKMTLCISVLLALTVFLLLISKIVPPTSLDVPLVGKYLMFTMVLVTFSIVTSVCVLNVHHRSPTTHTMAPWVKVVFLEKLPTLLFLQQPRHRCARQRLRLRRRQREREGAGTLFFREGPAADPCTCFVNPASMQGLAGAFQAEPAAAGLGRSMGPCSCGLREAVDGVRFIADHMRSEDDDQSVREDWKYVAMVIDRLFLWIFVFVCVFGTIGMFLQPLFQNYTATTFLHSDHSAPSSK

UniProt P49582, sequence (P49582 23-502): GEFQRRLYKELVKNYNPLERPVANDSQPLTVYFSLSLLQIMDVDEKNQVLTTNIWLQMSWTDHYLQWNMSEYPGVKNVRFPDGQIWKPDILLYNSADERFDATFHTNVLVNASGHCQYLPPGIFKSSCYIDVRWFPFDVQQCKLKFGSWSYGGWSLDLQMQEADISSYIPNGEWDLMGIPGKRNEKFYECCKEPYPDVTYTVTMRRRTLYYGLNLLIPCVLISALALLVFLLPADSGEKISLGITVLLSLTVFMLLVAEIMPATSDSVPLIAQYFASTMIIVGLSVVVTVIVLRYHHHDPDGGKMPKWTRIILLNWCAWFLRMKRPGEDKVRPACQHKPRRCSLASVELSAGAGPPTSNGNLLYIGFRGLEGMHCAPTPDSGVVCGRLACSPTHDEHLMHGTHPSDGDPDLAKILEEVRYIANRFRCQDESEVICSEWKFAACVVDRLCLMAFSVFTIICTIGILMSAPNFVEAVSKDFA

CFP-RIC-3 (cyan fluorescent protein fused to the N terminus of RIC-3) (from UniProt Q7Z5B4 29-369) (natural protein)
FRET efficiency (CFP-RIC-3 to α7-Venus 1:1) [1]: 26% | FRET efficiency (CFP-RIC-3 to β2YFP 0.2:1) [2]: 10.8% | FRET efficiency (CFP-RIC-3 to β2YFP 0.5:1) [2]: 10.7%
